Results taken from publication PMC12416549 (2024).
Changes are numbered by the printed parent chain. Names may count otherwise.

T1: TNFR1 (Homo sapiens, UniProt P19438)
T1 chain: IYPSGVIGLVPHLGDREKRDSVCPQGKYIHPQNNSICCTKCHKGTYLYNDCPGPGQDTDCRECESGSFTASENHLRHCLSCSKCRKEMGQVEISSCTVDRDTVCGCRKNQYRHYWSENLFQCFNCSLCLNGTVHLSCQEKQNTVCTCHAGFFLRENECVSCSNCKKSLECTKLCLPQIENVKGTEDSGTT

B1: E60F (designed binder)
chain: SMEEEVEKAAKEYEKKKKEAIEKHLEKLKAKDKEAAERFLKELEEAAKEYAKDEAKTMSFEEAKRRAKKYKEKVLLSELSEEEQKEIKEAEEKLVRTILKYVEEAAK
B2: K52Q (designed binder)
chain: B1 chain with K52Q, F60E
B3: M58S (designed binder)
chain: B1 chain with M58S, F60E
B4: E22R (designed binder)
chain: B1 chain with E22R, F60E
B5: L43P (designed binder)
chain: B1 chain with L43P, F60E
B6: E22S (designed binder)
chain: B1 chain with E22S, F60E
B7: K56Q (designed binder)
chain: B1 chain with K56Q, F60E
B8: A36Y (designed binder)
chain: B1 chain with A36Y, F60E
B9: K93N (designed binder)
chain: B1 chain with F60E, K93N
B10: L99Q (designed binder)
chain: B1 chain with F60E, L99Q
B11: T97W (designed binder)
chain: B1 chain with F60E, T97W
B12: A9D (designed binder)
chain: B1 chain with A9D, F60E
B13: E12V (designed binder)
chain: B1 chain with E12V, F60E
B14: L94N (designed binder)
chain: B1 chain with F60E, L94N
B15: R38H (designed binder)
chain: B1 chain with R38H, F60E
B16: V102K (designed binder)
chain: B1 chain with F60E, V102K
B17: I21M (designed binder)
chain: B1 chain with I21M, F60E
B18: K15G (designed binder)
chain: B1 chain with K15G, F60E
B19: L76H (designed binder)
chain: B1 chain with F60E, L76H
B20: K48V (designed binder)
chain: B1 chain with K48V, F60E
B21: K85E (designed binder)
chain: B1 chain with F60E, K85E
B22: K73S (designed binder)
chain: B1 chain with F60E, K73S
B23: A67W (designed binder)
chain: B1 chain with F60E, A67W
B24: K56W (designed binder)
chain: B1 chain with K56W, F60E

Biological target: T1, TNFR1
Experiment: yeast display SC50

| Binder | apparent Kd (screen) |
| --- | --- |
| B1 | 0.956 nM |
| B2 | 0.718 nM |
| B3 | 4.39 nM |
| B4 | 0.446 nM |
| B5 | 12.5 nM |
| B6 | 0.539 nM |
| B7 | 2.73 nM |
| B8 | 0.539 nM |
| B9 | 1.27 nM |
| B10 | 11.4 nM |
| B11 | 2.48 nM |
| B12 | 1.16 nM |
| B13 | 0.956 nM |
| B14 | 20.2 nM |
| B15 | 1.4 nM |
| B16 | 1.27 nM |
| B17 | 0.539 nM |
| B18 | 0.653 nM |
| B19 | 1.69 nM |
| B20 | 0.653 nM |
| B21 | 0.446 nM |
| B22 | 9.41 nM |
| B23 | 10.4 nM |
| B24 | 11.4 nM |
